Measured values: paper PMC10853780

How the values were obtained:
[1] = target: HA-tagged DAXX (Y124A, R371W) (UniProt Q9UER7); test: co-IP; as the DAXX-ATRX co-IP (anti-HA magnetic beads on SF188 cell extracts, ethidium bromide), proteins separated on a 16% acrylamide gel; immunoblot for DAXX, H3.3 and H4
[2] = target: HA-tagged DAXX (Y124A) (human) (UniProt Q9UER7); test: co-IP; anti-HA magnetic beads (Pierce HA-Tag Magnetic IP/Co-IP Kit) on SF188 cell extracts (500 μg protein), 4 h at 4°C, 50 μg/ml ethidium bromide throughout, final wash with 200 mM NaCl; immunoblot for DAXX and ATRX

Row | percent reduction of the interaction against DAXX WT [2] | Substance | percent decrease of the interaction, corrected for the reduced stability of the mutant [1]
1 |  | H3.3-H4 heterodimer | its interaction with H3.3 and H4 was decreased by > 80%
2 | > 95% | alpha-thalassemia/mental retardation syndrome X-linked (ATRX), P46100 1-2492 | 
